System: MS2 coat protein
Assay: apparent KD of MS2 coat protein; designed switch direction (-1 OFF switch, 1 ON switch): -1; higher = weaker reporter binding
In short: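 For each design, the apparent KD is the median over clusters of curves fitted to normalised cluster fluorescence. Clusters held RNA switches with common flanks, transcribed on Illumina chips by stalled E. coli RNA polymerase. These were titrated with SNAP-549-labelled MS2 coat protein, doubling from 0.7 or 1.5 nM to 3 µM, without input, with 200 uM small-molecule ligand, or with an oligonucleotide input.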

[1] = input ligand: microRNA oligo, concentration not stated
[2] = Eterna round: R95, input ligand: microRNA oligo, concentration not stated
[3] = Eterna round: R95, input ligand: FMN 200 uM
[4] = Eterna round: R95, input ligand: none

Sequence	apparent KD of MS2 coat protein [2]	apparent KD of MS2 coat protein (input ligand: FMN 200 uM)	apparent KD of MS2 coat protein (input ligand: none)	also measured
UCACGGGUUUGAGGAUAUAUUAUUAUUAUUUAAAUAGAAGGCAAAGAAAUUGUUAUUUCACUAUACAUGAGGAUCACCCAUGUU [JR_ExcNG1_Sub088] (Eterna round: R96, puzzle: Exclusion NG 1)				apparent KD of MS2 coat protein [1]: 19.5 nM
UCAUAACAUGAGGAUCACCCAUGUCAGGAUAUGAUACUAUGUACUUCGGUACAUAGUAUCAGAAGGGACAUACU [Ex1-3: 12] (puzzle: Exclusion 1)	103 nM			
UCAUAACAUGAGGAUCACCCAUGUGAGGAUAUGAUACUAUGUACUUCGGUACAUAGUAUCAGAAGGCACAUGCU [Brourd's Ex1-3: 11 (nt 72 G)] (puzzle: Exclusion 1)	127 nM			apparent KD of MS2 coat protein [3]: 34.8 nM; apparent KD of MS2 coat protein [4]: 127 nM
UCAUGGUAGCAGGAUAUGCUUGUUUAAUUUUUUGCAGAAGGGCUAACAUGAGGAUCACCCAUGUGAGAGGUCUA [JR_E6_Sub065] (puzzle: Exclusion 6)	64.3 nM			apparent KD of MS2 coat protein [3]: 31 nM; apparent KD of MS2 coat protein [4]: 144 nM
UCAUGUUUAGAGGAUAUGAUUACUCUAGAGUGAUCAGAAGGCUAGACAUGAGGAUCACCCAUGUCAGAACAUGA [Exclusion 6 - B - 16:b] (puzzle: Exclusion 6)	47.6 nM			apparent KD of MS2 coat protein [3]: 95.4 nM; apparent KD of MS2 coat protein [4]: 46.5 nM
UCCGCGCGCUUGCGCGCGGACAUGAGGAUCACCCAUGUCGGGCUUUUUGCUCGUUUUGUUGCGCGCGUUCGCGCGCG [Revision to Olbi_3 by Sunset] (Eterna round: R97, puzzle: Sensor, turn-off variant 1)		89.1 nM	101 nM	
UCCGGACAUGAGGAUCACCCAUGUGAGGAUAUUGUCGACACGACUGAAAGGAUCACGGCGAGAAGGCGCUUGGA [Eternabot (L2) Solution 48] (Eterna round: R97, puzzle: Exclusion 1)		25.7 nM	21.6 nM	
UCCUCACAUGAGGAUCACCCAUGUCAGGAUAUACGAACGGUAAGUGACAAUCGAUUACGUAGAAGGGACUGCGG [Eternabot (L1) Solution 78] (Eterna round: R97, puzzle: Exclusion 1)		110 nM	121 nM	
UCCUCACAUGAGGAUCACCCAUGUGAGGAUAUCAUGCUUCGUAGUAAACUACGAAGUGUGAGAAGGCACAUGGC [Omei Ex1 D15] (Eterna round: R97, puzzle: Exclusion 1)		23.9 nM	19.6 nM	
UCCUCACAUGAGGAUCACCCAUGUUAGGAUAUCUUAGAGCGCGAAAGACAGUUCUUUAAGAGAAGGAACUGGGC [Exclusion 1 (MOD1 of Edarti)] (Eterna round: R97, puzzle: Exclusion 1)		54 nM	22.4 nM	
UCCUCCUAAGGAUAUGCGUCGGUUGAACUAUGCUAAAAGGGACAUGAGGAUCACCCAUGUAGAAGGUAGGGCAG [Eternabot (L2) Solution 86] (Eterna round: R97, puzzle: Exclusion 2)		72.5 nM	48.8 nM	
UCCUCGUCAGGAUAUGUCUCGACGCGGUCCGCGUGCGGUCAACAGAAGGGACAUGAGGAUCACCCAUGUGCAGA [Eternabot (Original) Solution 38] (Eterna round: R97, puzzle: Exclusion 4)		228 nM	204 nM	
UCCUGGCGAGGAUAUACAAAGAUUUUUUCGUUUUGUUUCGAACAUGAGGAUCACCCAUGUAGAAGGUGCUGCUG [JR_Ex2_Sub015] (Eterna round: R97, puzzle: Exclusion 2)		46.4 nM	46.7 nM	
UCCUUACAUGAGGAUCACCCAUGUCAGGAUAUCUCCACACUGCGCUUGCGCAGUGUAUAGAGAAGGGACGGGCU [JL ViennaUCT Aner mod 7] (puzzle: Exclusion 1)	28.5 nM			
UCGAAGCUAGGAUAUACAUGAGGAUCACCCAUGUGAGUAAUAACUUGGAGAUACCUCCGUAGAAGGAGCACAAA [Beatdienat] (puzzle: Exclusion 3)	107 nM			apparent KD of MS2 coat protein [3]: 310 nM; apparent KD of MS2 coat protein [4]: 125 nM
UCGCCGCCCUUGGGCGGCGACAUGAGGAUCACCCAUGUCAAGCUUUUUGCUCGUUUUAUUGCCGGCCUUGGCCGGCU [Olib_2] (Eterna round: R97, puzzle: Sensor, turn-off variant 1)		28.3 nM	33.2 nM	
UCGGAUUCAGGAUAUUGCACAUGUGACAUGAGGAUCACCCAUGUUCCCUUAUUUGGUCACCAAGAAGGGAGUUUAU [Eternabot (L2) Solution 34] (Eterna round: R97, puzzle: Exclusion 5)		157 nM	152 nM	
UCGGCGCGAGGAUAUACGUUUGCGCUUUUUCGUUUUUGUGUACAUGAGGAUCACCCAUGUAGAAGGCGCGCCGC [Apr-15 SS2-18] (puzzle: Exclusion 2)	14.9 nM			

Sequence	apparent KD of MS2 coat protein [2]	apparent KD of MS2 coat protein (input ligand: FMN 200 uM)	apparent KD of MS2 coat protein (input ligand: none)	also measured
UCGGCGCGAGGAUAUACGUUUGCUUUUUUGUGUCGUUGCGUACAUGAGGAUCACCCAUGUAGAAGGCGCGCCGC [Apr-15 SS2-24] (puzzle: Exclusion 2)	16 nM			
UCGGCGCGAGGAUAUGCGGUUUGUGCUUCGGGCCCUCGCGUACAUGAGGAUCACCCAUGUAGAAGGCGCGCCGC [Apr-15 SS2-45] (puzzle: Exclusion 2)	75.2 nM			
UCGGCGCGAGGAUAUGCGGUUUGUGCUUUGGGCCCUGGCGUACAUGAGGAUCACCCAUGUAGAAGGCGCGUUGC [Apr-15 SS2-48] (puzzle: Exclusion 2)	17.1 nM			
UCGGGUAGAGGAUAUACAUAGAAAUAGAUUCAUGUAAAACUACAUGAGGAUCACCCAUGUAGAAGGCUAUCCGU [Mat - Exclusion 2 - JL Mod - D56] (Eterna round: R97, puzzle: Exclusion 2)		164 nM	27.2 nM	
UCGUGAUUAGAGGAUAUAUUAAGAGUCAGAACAAUAGAAGGCUAAACAUGAGGAUCACCCAUGUAAAUGUGAAA [JR_Ex6_Sub060] (Eterna round: R97, puzzle: Exclusion 6)		172 nM	35.5 nM	
UCGUGAUUAGAGGAUAUAUUAAGGGUCAGAACAAUAGAAGGCUAAACAUGAGGAUCACCCAUGUAAAUGGUUUU [JR_Ex6_Sub058] (Eterna round: R97, puzzle: Exclusion 6)		183 nM	70.7 nM	
UCGUGAUUAGAGGAUAUAUUUUGAGUCAGAACAAUAGAAGGCUAAACAUGAGGAUCACCCAUGUAUAUGUGUAA [JR_Ex6_Sub062] (Eterna round: R97, puzzle: Exclusion 6)		140 nM	46.7 nM	
UCGUUUUUUGAGGAUAUGCGACGUUUUUUCGUCGUAGAAGGCGAUACAUGAGGAUCACCCAUGUUUAUGGGCAU [LRO-Ex6-15] (puzzle: Exclusion 6)	148 nM			
UCUAACCAUGUAGGAUAUGCGUGGCUAAGCUAUGCAGAAGGACAUGAGGAUCACCCAUGUGCCUCCGUCUGCGUACAGUCGGCU [EXclNG1-LROPPY01] (Eterna round: R96, puzzle: Exclusion NG 1)		15.5 nM	18.5 nM	apparent KD of MS2 coat protein [1]: 11.2 nM
UCUCGCAGGCAAGGAUAUCCUACAUUGUUCUGGCCCGGGCAUGUUACAUGAGGAUCACCCAUGUGGGAGAAGGUGCGCCACGGC [Design 33] (Eterna round: R96, puzzle: Exclusion NG 2)		196 nM	100 nM	apparent KD of MS2 coat protein [1]: 175 nM
UCUCGCGUCGAGGAUAUAUCGUGUAAGUGCGCGAUAGAAGGCGACACAUGAGGAUCACCCAUGUAGGGCCGAAC [Eternabot (Original) Solution 14] (Eterna round: R97, puzzle: Exclusion 6)		149 nM	23.2 nM	
UCUCGUAGGCAAGGAUAUCCUACAUUGUUCUGGCCCGGGCAUGCUACAUGAGGAUCACCCAUGUGGGAGAAGGUGCGCCACUGC [Design 27] (Eterna round: R96, puzzle: Exclusion NG 2)		52.4 nM	36.2 nM	apparent KD of MS2 coat protein [1]: 39.7 nM
UCUCUUGGGCAAGGAUAUCCUGCGCGGUUCCGGUUCGUGUCUGUCACAUGAGGAUCACCCAUGUGGGAGAAGGUGCCUGCGGUU [Design 76] (Eterna round: R96, puzzle: Exclusion NG 2)				apparent KD of MS2 coat protein [1]: 13.1 nM
UCUGGGUCUGUGAGGAUAUCGGGCCCGAAAGGGCCCGAGAAGGCACAUGAGGAUCACCCAUGUAAGGGCUCGGG [-38.4, -36.3 kcal, A 23%, 0-7bis] (Eterna round: R97, puzzle: Brourd's mod of Exclusion 4)		20.3 nM	25 nM	
UCUUACUGAGGAUAUACAUAGAUUUACAUGAGGAUCACCCAUGUUCCUCUAUGUAUAAAUGUAGAAGGCAGAAGAA [Mat - Exclusion 5 - JL Mod - D53] (Eterna round: R97, puzzle: Exclusion 5)		82.6 nM	17.8 nM	
UCUUAGCAAGCAAAUGGGUACAUGAGGAUCACCCAUGUGCUCGUCUUAUAAGGUACUGUGACGAAAGUCACGGUACC [mod--Eli8] (Eterna round: R97, puzzle: Sensor, turn-off variant 1)		24.7 nM	19.5 nM	
UCUUUGUUUGUGAGGAUAUCGGUGGGAUGGGUUGUCGAGAAGGCACAUGAGGAUCACCCAUGUGAGGGACAGCA [JR_BMEx4_Sub028] (Eterna round: R97, puzzle: Brourd's mod of Exclusion 4)		16.6 nM	16.2 nM	
UGAAUACGUGUUAGGAUAUGGUUUGGUAUUUCGGGCUAGAAGGGACAUGAGGAUCACCCAUGUAAUUGAUAGGU [-16.2, -13.6 kcal, 27% A] (Eterna round: R97, puzzle: Brourd's mod of Exclusion 4)		52.4 nM	38.5 nM	
